According to paper PMC11417369, “DNA sequence and chromatin differentiate sequence-specific transcription factor binding in the human malaria parasite Plasmodium falciparum”:

B1: GTGCAC_site9771 (dsDNA)
DNA 1: GTACGTTTCTCCAGACTGCACTATACGACTCGTACA
DNA 2: TGTACGAGTCGTATAGTGCAGTCTGGAGAAACGTAC
B2: GTGCAC_site10283 (dsDNA)
DNA 1: AAAATAATTTTATAAGTGCAAAATAGCTTATTTATA
DNA 2: TATAAATAAGCTATTTTGCACTTATAAAATTATTTT
B3: GTGCAC_site9741 (dsDNA)
DNA 1: ATTCATATTTTTCAAGTGCGCATTAAAATATTAACC
DNA 2: GGTTAATATTTTAATGCGCACTTGAAAAATATGAAT
B4: GTGCAC_site10457 (dsDNA)
DNA 1: TACAATATATTTATAGTGCATATTACTTTTAACTTT
DNA 2: AAAGTTAAAAGTAATATGCACTATAAATATATTGTA
B5: GTGCAC_site10497 (dsDNA)
DNA 1: AAAAAAAAAAAATGTGTGCACATTATTTCAACTTAA
DNA 2: TTAAGTTGAAATAATGTGCACACATTTTTTTTTTTT
B6: GTGCAC_site9563 (dsDNA)
DNA 1: AAAATAATCTTTTGATTGCACTGTTACATTTTTTCT
DNA 2: AGAAAAAATGTAACAGTGCAATCAAAAGATTATTTT
B7: GTGCAC_site10554 (dsDNA)
DNA 1: TATATATATATATGAGTGCATATGTGTAATATAAAA
DNA 2: TTTTATATTACACATATGCACTCATATATATATATA
B8: GTGCAC_site10208 (dsDNA)
DNA 1: TTTTGTTATTAGAGGGTGCTTATAATGAACTCCTAC
DNA 2: GTAGGAGTTCATTATAAGCACCCTCTAATAACAAAA
B9: GTGCAC_site10402 (dsDNA)
DNA 1: TTACACATGTATTTGGTGCATGTTGTTAACAAAATA
DNA 2: TATTTTGTTAACAACATGCACCAAATACATGTGTAA
B10: GTGCAC_site10046 (dsDNA)
DNA 1: TTTTTGTTATATAAAGTGCAGTGACAAGCAGTTTAA
DNA 2: TTAAACTGCTTGTCACTGCACTTTATATAACAAAAA
B11: GTGCAC_negctrl_site309 (dsDNA)
DNA 1: AATGATGTTGTATTGTTTCGATATAACATCTAATTT
DNA 2: AAATTAGATGTTATATCGAAACAATACAACATCATT
B12: GTGCAC_negctrl_site662 (dsDNA)
DNA 1: TTTTAATGAAATATCAAAAAAATTTATGATTTCAAA
DNA 2: TTTGAAATCATAAATTTTTTTGATATTTCATTAAAA
B13: GTGCAC_site9599 (dsDNA)
DNA 1: TTATATGTATATATAGTGCAGAACAAAAGATTATAT
DNA 2: ATATAATCTTTTGTTCTGCACTATATATACATATAA
B14: GTGCAC_negctrl_site531 (dsDNA)
DNA 1: AAATAAATTAAAATAAATTAAATTAAATTAGCATTA
DNA 2: TAATGCTAATTTAATTTAATTTATTTTAATTTATTT
B15: GTGCAC_site10115 (dsDNA)
DNA 1: TTTGTTTGTAAAATGTTGCACTTTCTTTTGCTGATA
DNA 2: TATCAGCAAAAGAAAGTGCAACATTTTACAAACAAA
B16: GTGCAC_site10475 (dsDNA)
DNA 1: TAATGTTCCTATATAGTGCAATTATGTTTTATTTCT
DNA 2: AGAAATAAAACATAATTGCACTATATAGGAACATTA
B17: GTGCAC_site10627 (dsDNA)
DNA 1: TTAAGATACAAAAAAGTGCATATTTTTTAACAAAAA
DNA 2: TTTTTGTTAAAAAATATGCACTTTTTTGTATCTTAA
B18: GTGCAC_site10708 (dsDNA)
DNA 1: TTCTAAAATTATATAGTGCAATTATATTAATTTTTC
DNA 2: GAAAAATTAATATAATTGCACTATATAATTTTAGAA
B19: GTGCAC_site9605 (dsDNA)
DNA 1: AAGGGAAAAATATGGTTGCACTAAAAATATGTAATT
DNA 2: AATTACATATTTTTAGTGCAACCATATTTTTCCCTT
B20: GTGCAC_site10715 (dsDNA)
DNA 1: TTTTTGTAACCGATTCTGCACTGAGAAGCACATATA
DNA 2: TATATGTGCTTCTCAGTGCAGAATCGGTTACAAAAA
B21: GTGCAC_site9973 (dsDNA)
DNA 1: AATTAAAAGTGAAGAGTGCATAGAATTTTTTACTTT
DNA 2: AAAGTAAAAAATTCTATGCACTCTTCACTTTTAATT
B22: GTGCAC_site9560 (dsDNA)
DNA 1: ATACATCGTATATAAGTGCATATTAAGGTCTTAAGA
DNA 2: TCTTAAGACCTTAATATGCACTTATATACGATGTAT
B23: GTGCAC_negctrl_site185 (dsDNA)
DNA 1: AAAAGAAAAATGTCATATGATATCATATATTTTATA
DNA 2: TATAAAATATATGATATCATATGACATTTTTCTTTT
B24: GTGCAC_negctrl_site558 (dsDNA)
DNA 1: AAATAATATATTCTATATAATAAATTATAAATATAA
DNA 2: TTATATTTATAATTTATTATATAGAATATATTATTT
B25: GTGCAC_site9414 (dsDNA)
DNA 1: TTAAATATTTTTAGAGTGCATGTAATAAAAATATAA
DNA 2: TTATATTTTTATTACATGCACTCTAAAAATATTTAA
B26: GTGCAC_site9816 (dsDNA)
DNA 1: AAGACATTTTTTAAGGTGCTTTGGAAAAAGGAGTAT
DNA 2: ATACTCCTTTTTCCAAAGCACCTTAAAAAATGTCTT
B27: GTGCAC_site9514 (dsDNA)
DNA 1: GTAGGATTTTCTTTTGTGCGCAATATAAAAAGAAAA
DNA 2: TTTTCTTTTTATATTGCGCACAAAAGAAAATCCTAC
B28: GTGCAC_site10541 (dsDNA)
DNA 1: TTCAAATAAATAGTAGTGCATATTTATTAATGTAAA
DNA 2: TTTACATTAATAAATATGCACTACTATTTATTTGAA
B29: GTGCAC_site10006 (dsDNA)
DNA 1: ATATATTAACAAAAGGTGCTTTTGGCAAAGTATAAT
DNA 2: ATTATACTTTGCCAAAAGCACCTTTTGTTAATATAT
B30: GTGCAC_site9756 (dsDNA)
DNA 1: TACTTATTTAAAATAGTGCATGAATAGAAGATATAT
DNA 2: ATATATCTTCTATTCATGCACTATTTTAAATAAGTA
B31: GTGCAC_site10325 (dsDNA)
DNA 1: TATATACATGTGAGAGTGCATATAGACATAAAAAAT
DNA 2: ATTTTTTATGTCTATATGCACTCTCACATGTATATA
B32: GTGCAC_site10493 (dsDNA)
DNA 1: AAAGGATTTATACTAGTGCAAAAATATAAAAATATA
DNA 2: TATATTTTTATATTTTTGCACTAGTATAAATCCTTT

Each binder was assayed against AP2-I D3 (Plasmodium falciparum, UniProt Q8IJW6 910-1027) (assay: gcPBM; about 25 ug protein; PBS, 1% milk, 0.2 mg/ml BSA, salmon testes DNA, 0.03% Triton X-100). Conditions: tags: N-terminal GST (pGEX-4T-1), kept; label: surface-attached array probe.

Binder	binding signal
B1	9.61 ln median PBM intensity, better of two orientations
B2	9.62 ln median PBM intensity, better of two orientations
B3	9.34 ln median PBM intensity, better of two orientations
B4	9.8 ln median PBM intensity, better of two orientations
B5	9.36 ln median PBM intensity, better of two orientations
B6	9.41 ln median PBM intensity, better of two orientations
B7	9.85 ln median PBM intensity, better of two orientations
B8	9.87 ln median PBM intensity, better of two orientations
B9	9.49 ln median PBM intensity, better of two orientations
B10	9.65 ln median PBM intensity, better of two orientations
B11	6.82 ln median PBM intensity, better of two orientations
B12	6.64 ln median PBM intensity, better of two orientations
B13	9.82 ln median PBM intensity, better of two orientations
B14	6.62 ln median PBM intensity, better of two orientations
B15	9.33 ln median PBM intensity, better of two orientations
B16	9.98 ln median PBM intensity, better of two orientations

Binder	binding signal
B17	9.96 ln median PBM intensity, better of two orientations
B18	9.54 ln median PBM intensity, better of two orientations
B19	9.25 ln median PBM intensity, better of two orientations
B20	9.57 ln median PBM intensity, better of two orientations
B21	9.92 ln median PBM intensity, better of two orientations
B22	9.59 ln median PBM intensity, better of two orientations
B23	6.79 ln median PBM intensity, better of two orientations
B24	6.74 ln median PBM intensity, better of two orientations
B25	9.27 ln median PBM intensity, better of two orientations
B26	9.5 ln median PBM intensity, better of two orientations
B27	9.23 ln median PBM intensity, better of two orientations
B28	9.69 ln median PBM intensity, better of two orientations
B29	9.45 ln median PBM intensity, better of two orientations
B30	9.47 ln median PBM intensity, better of two orientations
B31	10 ln median PBM intensity, better of two orientations
B32	9.74 ln median PBM intensity, better of two orientations
